Reference: patent US8772451

Columns and labels:
[1] = target: cognate MHC/peptide of the 264scTCR (HLA-A2.1/p53 aa 264-272), form in SPR not stated (human); assay: surface plasmon resonance, physiological conditions
[2] = target: HLA-A2.1 presenting p53 (aa264-273) peptide, on T2 cells (human); assay: flow cytometry on peptide-loaded T2 cells, fusion protein at 125 pM, H57-PE detection
[3] = target: HLA-A2.1 presenting human p53 (aa 149-157) control peptide, on T2 cells (human); assay: as above
[4] = target: HLA-A2.1 presenting p53 (aa264-273) peptide, on T2 cells (human); assay: quantitative flow cytometry on peptide-loaded T2 cells, PE anti-human IgG detection

## 264scTCR
[1]
  Kd: 100 nM

## 264scTCR/trunIgG1 (from UniProt P01857 1-98)
[2]
  mean channel fluorescence (MCF): 55.3 MCF
[3]
  mean channel fluorescence (MCF): 10.9 MCF

## 264scTCR/IgG1 fusion protein (from UniProt P01857 1-330)
[4]
  fold increase in staining against 264scTCR/BirA tetramers: 4 to 10 fold
[2]
  mean channel fluorescence (MCF): 863 MCF
[3]
  mean channel fluorescence (MCF): 119 MCF

## 264scTCR/BirA (monomeric, without biotinylation)
[2]
  mean channel fluorescence (MCF): 95.1 MCF
[3]
  mean channel fluorescence (MCF): 13.4 MCF
